This is an account of results in patent US20250277036A1 (POLYGON THERAPEUTICS, published 2025).

The target of assay [1] is T1, Recombinant human CD4 (Sino biological #10400-H08H) (human, UniProt P01730 26-390). Description: dose-response ELISA on coated human CD4, rat IgG2b format. The method, then: (§1) […] of streptavidin were coated on Nunc Maxisorp 96-well plates (ThermoFisher #442404) at 100 μL/well and incubated 1 hour at room temperature. Biotinylated human CD8α (Fisher Scientific #17196181) and mouse CD8α (Sino biological #50389-M08H-B) were added at 0.5 μg/mL in 100 μL/well and incubated overnight at 4° C. Human CD4 (Sino biological #10400-H08H) was coated passively at 1 μg/mL in 100 μL/well and incubated overnight at 4° C. Plates were then blocked using 200 μL of PBS containing 4% skimmed milk for 1 hour at room temperature.
(§2) The three antibody clones (in both human IgG1 lambda and rat IgG2b kappa formats) were diluted in milk-PBS and tested at different concentrations (75, 25, 8.3, 2.8, 0.93, 0.31, 0.103, 0.034, 0.011, 0.0038, 0.0013 and 0.00042 μg/mL). 100 μL/well were incubated 1 hour at room temperature.
(§3) TMB ((3,3′,5,5′ tetramethylbenzidine) Thermo Scientific #12617087) was added for a 3-minute incubation. Reaction was stopped with H₂SO₄ and absorbance at 450 nm was read on a microplate reader (Pherastar FS, BMG Labtech).
(ELISA stands for enzyme-linked immunosorbent assay.)

In assay [2] the target is T2, Biotinylated recombinant mouse CD8α (Sino biological #50389-M08H-B) (mouse, UniProt P01731 28-196, biotinylated (site not stated)). Kind of assay: dose-response ELISA, rat IgG2b format. As for the experimental part:
as §1, §2, §3

For assay [3], the target named is T3, Biotinylated recombinant human CD8α (Fisher Scientific #17196181) (human, UniProt P01732 22-182, biotinylated (site not stated)).
T3 construct: Bought protein; also called hCD8α; recombinant human CD8α protein
Kind of assay: dose-response ELISA on biotinylated human CD8α captured on streptavidin, rat IgG2b format. The method, then:
as §1, §2, §3

In assay [4] the target is T1, Recombinant human CD4 (Sino biological …). Description: dose-response ELISA on coated human CD4, human IgG1 format. As for the experimental part: as §1, §2, §3
Assay [5] addresses T2, Biotinylated recombinant mouse CD8α …. Kind of assay: dose-response ELISA, human IgG1 format. The method, then:
as §1, §2, §3

Assay [6] has as its target T3, Biotinylated recombinant human CD8α …. Kind of assay: dose-response ELISA on biotinylated human CD8α captured on streptavidin, human IgG1 format. The method, then: as §1, §2, §3

T2 sequence (P01731 28-196 limits assumed, stated change not applied): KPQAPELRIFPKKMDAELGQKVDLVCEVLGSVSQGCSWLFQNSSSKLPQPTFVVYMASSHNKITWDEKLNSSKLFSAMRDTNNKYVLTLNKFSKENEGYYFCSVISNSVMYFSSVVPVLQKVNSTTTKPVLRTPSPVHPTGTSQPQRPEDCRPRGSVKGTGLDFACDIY
T3 sequence (P01732 22-182 limits assumed): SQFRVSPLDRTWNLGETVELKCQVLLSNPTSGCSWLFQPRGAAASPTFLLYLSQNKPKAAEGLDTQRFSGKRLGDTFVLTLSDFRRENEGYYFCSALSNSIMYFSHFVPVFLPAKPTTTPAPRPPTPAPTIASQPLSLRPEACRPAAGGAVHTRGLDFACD

B1: MP08-R3-C11 in the rat IgG2b kappa format (antibody, V domains shown)
VH: EVQLVESGGSLVKPGGSLRLSCAASGFTFSNYDMNWVRQAPGKGLEWISDISGSSSYIDYADFVKGRFTISRDNAKNSLYLQMNSLRAEDTAVYYCVRSSYYSGSGMDVWGRGTLVTVSS
VL: QSVLTQPASVSGSPGQSITISCAGTSSDVGGGSSVSWYQQHPGKAPKLMIYQDSYRPSGVSNRFSGSKSGNTASLTISGLQAEDEADYYCSSYTYYSTRVFGGGTKLAVL
notes: Same VH and VL cloned into a rat IgG2b kappa format; also called MP08-R3-C11 rat IgG2b
On to B1, for which the binding result in assay [1] and in assay [2] was “no binding (tested: 75 µg/mL (highest concentration tested))” each time. For the same molecule, the EC50 in assay [3] was found to be 0.48 nM.

B2: MP09-R3-D03 in the rat IgG2b kappa format (antibody, V domains shown)
VH: EVQLVESGGSLVKPGGSLRLSCAASGFTFSNYYMNWVRQAPGKGLEWISSISGSSRYIYYADFVKGRFTISRDNAKNSLYLQMNSLRAEDTAVYYCVRSSGSYFGNAMDVWGRGTLVTVSS
VL: QSVLTQPASVSGSPGQSITISCAGTSSDVGGYYSVSWYQQHPGKAPKLMIYYDSSRPSGVSNRFSGSKSGNTASLTISGLQAEDEADYYCSSDTSYSTRVFGGGTKLAVL
notes: Same VH and VL cloned into a rat IgG2b kappa format; also called MP09-R3-D03 rat IgG2b; MP09-R3-D3
B2: the binding result in assay [1] and in assay [2] was “no binding (tested: 75 µg/mL (highest concentration tested))” in each case. Further, in assay [3], the EC50 is 0.99 nM.

B3: MP09-R3-D03 in the human IgG1 lambda format (antibody, V domains shown)
VH: EVQLVESGGSLVKPGGSLRLSCAASGFTFSNYYMNWVRQAPGKGLEWISSISGSSRYIYYADFVKGRFTISRDNAKNSLYLQMNSLRAEDTAVYYCVRSSGSYFGNAMDVWGRGTLVTVSS
VL: QSVLTQPASVSGSPGQSITISCAGTSSDVGGYYSVSWYQQHPGKAPKLMIYYDSSRPSGVSNRFSGSKSGNTASLTISGLQAEDEADYYCSSDTSYSTRVFGGGTKLAVL
notes: Whole human IgG1 lambda made in ExpiCHO cells; also called hMP09-R3-D03; MP09-R3-D03 human IgG1 clone
Consider B3, for which the binding result in assay [4] and in assay [5] was “no binding (tested: 75 µg/mL (highest concentration tested))” throughout. Also, the EC50 in assay [6] was 2 nM.

B4: MP08-R3-C11 in the human IgG1 lambda format (antibody, V domains shown)
VH: EVQLVESGGSLVKPGGSLRLSCAASGFTFSNYDMNWVRQAPGKGLEWISDISGSSSYIDYADFVKGRFTISRDNAKNSLYLQMNSLRAEDTAVYYCVRSSYYSGSGMDVWGRGTLVTVSS
VL: QSVLTQPASVSGSPGQSITISCAGTSSDVGGGSSVSWYQQHPGKAPKLMIYQDSYRPSGVSNRFSGSKSGNTASLTISGLQAEDEADYYCSSYTYYSTRVFGGGTKLAVL
notes: Whole human IgG1 lambda made in ExpiCHO cells; also called hMP08-R3-C11; MP08-R3-C11 human IgG1 clone
As for B4, the binding result in assay [4] and in assay [5] was “no binding (tested: 75 µg/mL (highest concentration tested))” throughout. In assay [6], the EC50 is 2.4 nM.

B5: MP08-R3-F08 in the human IgG1 lambda format (antibody, V domains shown)
VH: EVQLVESGGSLVKPGGSLRLSCAASGFTFSNNAMNWVRQAPGKGLEWISDISGSSRYIGYADFVKGRFTISRDNAKNSLYLQMNSLRAEDTAVYYCVRSSNYYDYNADAMDVWGRGTLVTVSS
VL: QSVLTQPASVSGSPGQSITISCAGTSSDVGGNSYVSWYQQHPGKAPKLMIYSDSSRPSGVSNRFSGSKSGNTASLTISGLQAEDEADYYCSSYTQYSTRVFGGGTKLAVLG
notes: Whole human IgG1 lambda made in ExpiCHO cells; also called hMP08-R3-F08; MP08-R3-F08 human IgG1 clone; copies: 2 + 2
For the molecule B5, the binding result in assay [4] and in assay [5] was “no binding (tested: 75 µg/mL (highest concentration tested))” each time. Besides, in assay [6], the EC50 was found to be 0.28 nM.

B6: MP08-R3-F08 in the rat IgG2b kappa format (antibody, V domains shown)
VH: EVQLVESGGSLVKPGGSLRLSCAASGFTFSNNAMNWVRQAPGKGLEWISDISGSSRYIGYADFVKGRFTISRDNAKNSLYLQMNSLRAEDTAVYYCVRSSNYYDYNADAMDVWGRGTLVTVSS
VL: QSVLTQPASVSGSPGQSITISCAGTSSDVGGNSYVSWYQQHPGKAPKLMIYSDSSRPSGVSNRFSGSKSGNTASLTISGLQAEDEADYYCSSYTQYSTRVFGGGTKLAVL
notes: Same VH and VL cloned into a rat IgG2b kappa format; also called MP08-R3-F08 rat IgG2b
B6: the binding result in assay [1] and in assay [2] was “no binding (tested: 75 µg/mL (highest concentration tested))” throughout. Besides, the EC50 in assay [3] worked out at 0.2 nM.

A word on the EC50: it is the midpoint of the concentration-response curve.
